Each block holds one binder with its values, some of them ahead of it.
How the values were obtained:
Test in all cases: holdup assay
Parameters in all cases: key: below the threshold = too weak to quantify, mostly under pKd 3.1 to 4
[1] = target: T1, LRRC7, Q96NW7
T1 sequence (Q96NW7 1440-1537, limits assumed, looked up): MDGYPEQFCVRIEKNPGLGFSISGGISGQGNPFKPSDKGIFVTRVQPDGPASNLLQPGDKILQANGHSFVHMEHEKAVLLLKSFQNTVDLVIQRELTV

[2] = target: T2, PDZRN3_1, Q9UPQ7
T2 sequence (Q9UPQ7 244-349, limits assumed, looked up): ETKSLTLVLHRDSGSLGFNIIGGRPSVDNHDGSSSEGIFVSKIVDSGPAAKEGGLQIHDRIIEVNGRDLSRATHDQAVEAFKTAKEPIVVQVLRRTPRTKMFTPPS

[3] = target: MAST2, Q6P0Q8
[4] = target: T3, HTRA4, P83105
T3 sequence (P83105 378-476, limits assumed, looked up): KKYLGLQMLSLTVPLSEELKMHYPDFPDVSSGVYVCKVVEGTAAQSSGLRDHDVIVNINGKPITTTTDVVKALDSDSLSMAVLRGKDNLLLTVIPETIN

[5] = target: T4, PCLO, Q9Y6V0
T4 sequence (Q9Y6V0 4491-4600, limits assumed, looked up): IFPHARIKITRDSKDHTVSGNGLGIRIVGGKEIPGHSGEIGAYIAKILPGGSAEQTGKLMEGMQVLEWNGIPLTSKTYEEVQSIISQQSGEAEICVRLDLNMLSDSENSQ

[6] = target: DLG1_2, Q12959
[7] = target: Inadl_5, Q8NI35
[8] = target: MAGI1_2, Q96QZ7
[9] = target: GRIP2_4, Q9C0E4
[10] = target: T5, LIN7A, O14910
T5 sequence (O14910 103-200, limits assumed, looked up): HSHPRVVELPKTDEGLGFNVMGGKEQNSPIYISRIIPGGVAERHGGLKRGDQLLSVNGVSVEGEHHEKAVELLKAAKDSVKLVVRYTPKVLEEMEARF

[11] = target: T6, RADIL, Q96JH8
T6 sequence (Q96JH8 971-1071, limits assumed, looked up): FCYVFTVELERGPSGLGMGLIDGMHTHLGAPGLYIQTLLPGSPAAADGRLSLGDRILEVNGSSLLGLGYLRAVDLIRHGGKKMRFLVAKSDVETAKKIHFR

[12] = target: IL16_1, Q14005
[13] = target: LAP2, Q96RT1
[14] = target: T7, RHPN1, Q8TCX5
T7 sequence (Q8TCX5 508-602, limits assumed, looked up): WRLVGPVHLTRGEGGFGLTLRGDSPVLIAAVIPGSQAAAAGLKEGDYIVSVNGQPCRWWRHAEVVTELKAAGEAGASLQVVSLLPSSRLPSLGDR

[15] = target: Inadl_2, Q8NI35
[16] = target: DLG4_1, P78352
[17] = target: T8, MPP7, Q5T2T1
T8 sequence (Q5T2T1 134-230, limits assumed, looked up): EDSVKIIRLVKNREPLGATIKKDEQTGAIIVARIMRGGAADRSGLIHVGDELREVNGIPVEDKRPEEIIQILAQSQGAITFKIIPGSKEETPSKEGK

[18] = target: PICK1, Q9NRD5
[19] = target: T9, NHERF3_4, Q5T2W1
T9 sequence (Q5T2W1 373-468, limits assumed, looked up): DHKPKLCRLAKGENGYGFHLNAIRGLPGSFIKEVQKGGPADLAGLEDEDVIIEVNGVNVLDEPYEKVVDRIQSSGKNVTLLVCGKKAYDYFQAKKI

[20] = target: T10, NHERF3_1, Q5T2W1
T10 sequence (Q5T2W1 4-100, limits assumed, looked up): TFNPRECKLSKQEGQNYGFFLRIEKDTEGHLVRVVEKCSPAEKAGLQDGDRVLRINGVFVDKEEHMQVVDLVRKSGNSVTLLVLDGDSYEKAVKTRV

[21] = target: PARD3_3, Q8TEW0
[22] = target: T11, DFNB31_1, Q9P202
T11 sequence (Q9P202 135-233, limits assumed, looked up): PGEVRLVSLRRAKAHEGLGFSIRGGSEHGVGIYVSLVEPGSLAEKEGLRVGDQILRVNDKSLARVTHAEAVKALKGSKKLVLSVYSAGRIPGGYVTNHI

[23] = target: T12, GRIP1_3, Q9Y3R0
T12 sequence (Q9Y3R0 247-346, limits assumed, looked up): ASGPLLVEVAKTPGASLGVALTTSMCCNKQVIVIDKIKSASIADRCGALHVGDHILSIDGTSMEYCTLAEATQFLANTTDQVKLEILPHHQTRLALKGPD

[24] = target: ARHGEF12, Q9NZN5-2
[25] = plain residues with an end cap or a label only (N-terminal biotin on a linker: ttds)
[26] = plain residues with an end cap or a label only (N-terminal biotin on a linker: ado-ado)

Sequence of Inadl_2, Q8NI35 (Q8NI35 238-335): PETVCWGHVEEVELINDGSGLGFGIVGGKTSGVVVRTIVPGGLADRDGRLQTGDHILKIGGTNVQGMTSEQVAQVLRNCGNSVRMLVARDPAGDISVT
Sequence of GRIP2_4, Q9C0E4 (Q9C0E4 446-548): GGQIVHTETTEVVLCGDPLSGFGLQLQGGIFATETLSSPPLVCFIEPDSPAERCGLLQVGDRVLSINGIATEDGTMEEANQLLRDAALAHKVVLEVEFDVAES
Sequence of DLG4_1, P78352 (P78352 62-152): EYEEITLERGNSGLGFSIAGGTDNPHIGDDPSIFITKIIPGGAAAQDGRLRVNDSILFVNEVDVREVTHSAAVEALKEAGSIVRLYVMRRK
Sequence of ARHGEF12, Q9NZN5-2 (Q9NZN5 other isoform, or with tags, fused parts or gaps): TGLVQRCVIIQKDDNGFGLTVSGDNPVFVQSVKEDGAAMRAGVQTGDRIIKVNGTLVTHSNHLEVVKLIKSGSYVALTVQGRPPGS
Sequence of PICK1, Q9NRD5 (Q9NRD5 17-115): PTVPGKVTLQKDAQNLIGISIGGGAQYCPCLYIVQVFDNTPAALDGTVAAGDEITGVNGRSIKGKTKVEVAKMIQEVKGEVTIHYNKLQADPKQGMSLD
Sequence of DLG1_2, Q12959 (Q12959 314-412): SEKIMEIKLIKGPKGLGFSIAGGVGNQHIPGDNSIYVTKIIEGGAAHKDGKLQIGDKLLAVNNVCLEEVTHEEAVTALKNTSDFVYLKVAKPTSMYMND
Sequence of MAST2, Q6P0Q8 (Q6P0Q8 1099-1202): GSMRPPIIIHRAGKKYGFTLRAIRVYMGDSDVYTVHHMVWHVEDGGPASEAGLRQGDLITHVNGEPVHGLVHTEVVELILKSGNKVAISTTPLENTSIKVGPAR
Sequence of LAP2, Q96RT1 (Q96RT1 other isoform, or with tags, fused parts or gaps): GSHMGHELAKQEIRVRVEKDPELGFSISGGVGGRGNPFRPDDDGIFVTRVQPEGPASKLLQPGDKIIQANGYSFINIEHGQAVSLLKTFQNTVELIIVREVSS
Sequence of IL16_1, Q14005 (Q14005 210-306): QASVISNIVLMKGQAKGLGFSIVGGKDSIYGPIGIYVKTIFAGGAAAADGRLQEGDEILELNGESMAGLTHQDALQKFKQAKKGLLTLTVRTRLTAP
Sequence of Inadl_5, Q8NI35 (Q8NI35 673-780): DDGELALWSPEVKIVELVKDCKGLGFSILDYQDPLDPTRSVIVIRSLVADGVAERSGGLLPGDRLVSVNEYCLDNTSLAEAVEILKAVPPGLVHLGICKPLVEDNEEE
Sequence of PARD3_3, Q8TEW0 (Q8TEW0 582-685): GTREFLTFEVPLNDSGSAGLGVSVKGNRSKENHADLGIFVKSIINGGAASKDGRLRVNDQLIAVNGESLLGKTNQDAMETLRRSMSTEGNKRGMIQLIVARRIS
Sequence of MAGI1_2, Q96QZ7 (Q96QZ7 456-580): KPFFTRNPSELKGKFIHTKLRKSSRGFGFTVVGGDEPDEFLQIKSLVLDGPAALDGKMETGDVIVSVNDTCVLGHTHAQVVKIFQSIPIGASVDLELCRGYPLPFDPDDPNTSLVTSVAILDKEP

- pKd [1, 25]: below the threshold
- pKd [2, 25]: 3.54
- pKd [3, 25]: 4.55
- pKd [4, 25]: 3.48
- pKd [5, 25]: 3.66
- pKd [6, 25]: 3.84
- pKd [7, 25]: below the threshold
- pKd [8, 25]: 3.52
- pKd [9, 25]: below the threshold
- pKd [10, 25]: below the threshold
- pKd [11, 25]: below the threshold
- pKd [12, 25]: 3.59
- pKd [13, 25]: 3.53
- pKd [14, 25]: 4.43
- pKd [15, 25]: below the threshold
- pKd [16, 25]: 3.65
- pKd [17, 25]: below the threshold
- pKd [18, 25]: below the threshold
- pKd [19, 25]: below the threshold
- pKd [20, 25]: 3.91
- pKd [21, 25]: 3.64
- pKd [22, 25]: 4.06
- pKd [23, 25]: below the threshold
- pKd [24, 25]: 4.44
Binder: DPRNTQTSQI [ABRAXAS2, Q15018]

- pKd [1, 25]: below the threshold
- pKd [2, 25]: below the threshold
- pKd [3, 25]: 4.3
- pKd [4, 25]: below the threshold
- pKd [5, 25]: below the threshold
- pKd [6, 25]: 3.56
- pKd [7, 25]: below the threshold
- pKd [8, 25]: below the threshold
- pKd [9, 25]: below the threshold
- pKd [10, 25]: below the threshold
- pKd [11, 25]: below the threshold
- pKd [12, 25]: 4.26
- pKd [13, 25]: below the threshold
- pKd [14, 25]: below the threshold
- pKd [15, 25]: below the threshold
- pKd [16, 25]: below the threshold
- pKd [17, 25]: below the threshold
- pKd [18, 25]: below the threshold
- pKd [19, 25]: below the threshold
- pKd [20, 25]: 3.63
- pKd [21, 25]: below the threshold
- pKd [22, 25]: 3.5
- pKd [23, 25]: below the threshold
- pKd [24, 25]: below the threshold
Binder: GGPKEEESPV [SLC16A1, P53985]

- pKd [1, 26]: below the threshold
- pKd [2, 26]: 3.53
- pKd [3, 26]: 5.47
- pKd [4, 26]: 4.15
- pKd [5, 26]: below the threshold
- pKd [6, 26]: 4.4
- pKd [7, 26]: below the threshold
- pKd [8, 26]: below the threshold
- pKd [9, 26]: below the threshold
- pKd [10, 26]: below the threshold
- pKd [11, 26]: 3.96
- pKd [12, 26]: below the threshold
- pKd [13, 26]: 3.74
- pKd [14, 26]: 4.38
- pKd [15, 26]: below the threshold
- pKd [16, 26]: 3.9
- pKd [17, 26]: below the threshold
- pKd [18, 26]: 4.24
- pKd [19, 26]: 3.7
- pKd [20, 26]: 4.54
- pKd [21, 26]: below the threshold
- pKd [22, 26]: 4.18
- pKd [23, 26]: below the threshold
- pKd [24, 26]: 3.88
Binder: TETASVCTKV [SLC23A1, Q9UHI7]

- pKd [1, 25]: 3.63
- pKd [2, 25]: below the threshold
- pKd [3, 25]: 4.88
- pKd [4, 25]: 4.66
- pKd [5, 25]: below the threshold
- pKd [6, 25]: 5.87
- pKd [7, 25]: below the threshold
- pKd [8, 25]: 4.1
- pKd [9, 25]: below the threshold
- pKd [10, 25]: 3.64
- pKd [11, 25]: 4.59
- pKd [12, 25]: 4.06
- pKd [13, 25]: 3.61
- pKd [14, 25]: 4.24
- pKd [15, 25]: below the threshold
- pKd [16, 25]: 4.69
- pKd [17, 25]: below the threshold
- pKd [18, 25]: below the threshold
- pKd [19, 25]: 3.51
- pKd [20, 25]: below the threshold
- pKd [21, 25]: 3.62
- pKd [22, 25]: below the threshold
- pKd [23, 25]: below the threshold
- pKd [24, 25]: 4.67
Binder: LCALPKVTTV [AGMAT, Q9BSE5]
